Measurements from patent US20240261333A1, “NOVEL TARGETS FOR ENHANCING ANTI-TUMOR IMMUNITY” (THE BROAD INSTITUTE, INC., priority 2021, published 2024).

Target: T1, B3GNT2 (Homo sapiens, UniProt Q9NY97)
T1 construct: The respective ORFs of candidate genes [CD274 (NM_014143), MCL1 (NM_021960), JUNB (NM_002229), and B3GNT2 (NM_006577)] were synthesized; expressed in transfected cells; host or cells: A375 melanoma cells (lentiviral ORF overexpression)
T1 sequence (Q9NY97 1-397): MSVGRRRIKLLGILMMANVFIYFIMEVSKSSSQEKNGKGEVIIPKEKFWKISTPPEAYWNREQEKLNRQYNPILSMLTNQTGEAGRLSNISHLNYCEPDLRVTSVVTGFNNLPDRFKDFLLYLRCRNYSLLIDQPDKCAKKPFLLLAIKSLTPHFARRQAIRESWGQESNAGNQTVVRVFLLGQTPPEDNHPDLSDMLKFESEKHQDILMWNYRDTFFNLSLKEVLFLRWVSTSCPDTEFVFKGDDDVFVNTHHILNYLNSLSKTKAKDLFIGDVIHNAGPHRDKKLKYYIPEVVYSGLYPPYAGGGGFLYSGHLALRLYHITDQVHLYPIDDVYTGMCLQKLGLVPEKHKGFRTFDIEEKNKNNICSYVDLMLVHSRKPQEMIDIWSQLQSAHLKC
Assay: Co-IP of FLAG-tagged B3GNT2 followed by mass spectrometry
Format: cell-based
Parameters: C-term IgG / C-term flag: unit not given here
Conditions: mass spectrometry count, unit not given
In short: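 Co-purifying proteins were identified by fractionated nano-LC–MS/MS on an Orbitrap Elite, run data-dependent. Beforehand, lysates in 1% Triton X-100/HEPES buffer were incubated overnight at 4° C with anti-FLAG or […] and pulled down on Protein A/G magnetic beads for 4 h. Duplicate biological replicates.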

B1: TUBB6 (protein)
chain: MREIVHIQAGQCGNQIGTKFWEVISDEHGIDPAGGYVGDSALQLERINVYYNESSSQKYVPRAALVDLEPGTMDSVRSGPFGQLFRPDNFIFGQTGAGNNWAKGHYTEGAELVDAVLDVVRKECEHCDCLQGFQLTHSLGGGTGSGMGTLLISKIREEFPDRIMNTFSVMPSPKVSDTVVEPYNATLSVHQLVENTDETYCIDNEALYDICFRTLKLTTPTYGDLNHLVSATMSGVTTSLRFPGQLNADLRKLAVNMVPFPRLHFFMPGFAPLTSRGSQQYRALTVPELTQQMFDARNMMAACDPRHGRYLTVATVFRGPMSMKEVDEQMLAIQSKNSSYFVEWIPNNVKVAVCDIPPRGLKMASTFIGNSTAIQELFKRISEQFSAMFRRKAFLHWFTGEGMDEMEFTEAESNMNDLVSEYQQYQDATANDGEEAFEDEEEEIDG
C-term flag (Co-IP with FLAG antibody, C-terminally FLAG-tagged B3GNT2): 42
N-term FLAG (Co-IP with FLAG antibody, N-terminally FLAG-tagged B3GNT2): 63
C-term IgG (Co-IP with IgG control antibody, C-terminally FLAG-tagged B3GNT2): 0
N-term IgG (Co-IP with IgG control antibody, N-terminally FLAG-tagged B3GNT2): 0
